Data on 2 proteins can be found in patent US6794159.

In the data set the target is Alanyl-human growth hormone.

B1: Aeromonas aminopeptidase (protein)
chain: MPPITQQATVTAWLPQVDASQITGTISSLESFTNRFYTTTSGAQASDWIASEWQALSASLPNASVKQVSHSGYNQKSVVMTITGSEAPDEWIVIGGHLDSTIGSHTNEQSVAPGADDDASGIAAVTEVIRVLSENNFQPKRSIAFMAYAAEEVGLRGSQDLANQYKSEGKNVVSALQLDMTNYKGSAQDVVFITDYTDSNFTQYLTQLMDEYLPSLTYGFDTCGYACSDHASWHNAGYPAAMPFESKFNDYNPRIHTTQDTLANSDPTGSHAKKFTQLGLAYAIEMGSATGDTPTPGNQ
Take B1: the % cleavage (batch mode, 4-6° C., 16 hrs) stood at 48%; the % cleavage (batch mode, 4-6° C., 54 hrs) was found to be 65%; the % cleavage (batch mode, 4-6° C., 89 hrs) worked out at 75%; the % cleavage (batch mode, ambient, 16 hrs) was 82%. Besides, the % cleavage (batch mode, ambient, 54 hrs) was greater than 97%; the % cleavage (batch mode, ambient, 89 hrs) is greater than 97%; the % cleavage (recirculation, 28° C., 2.92 hrs, 1.06 passes, RP-HPLC) is greater than 93%; the % cleavage (recirculation, 28° C., 5.73 hrs, 2.08 passes, tryptic map) was greater than 96.1%. Further, the % cleavage (recirculation, 28° C., 15.57 hrs, 5.66 passes, tryptic map) is greater than 98.6%; the % cleavage (recirculation, 28° C., 17.73 hrs, 6.45 passes, tryptic map) was greater than 98.6%; the % cleavage (recirculation, 28° C., 20.4 hrs, 7.42 passes, tryptic map) is greater than 98.6%; the % cleavage (recirculation, 28° C., 23.4 hrs, 8.8 passes, tryptic map) is greater than 98.8%. Also, the % cleavage (recirculation, 28° C., 24.4 hrs, 8.87 passes, tryptic map) is greater than 98.8%; the % cleavage (recirculation, 28° C., 39.7 hrs, 14.44 passes, tryptic map) was greater than 99.2%; the “removal of Ala from Ala-hGH by AAP in free solution (Ala-hGH 3 mg/ml; AAP 2.0, 3.0, 4.0 units/ml; room temperature; ES/MS)” value is reported as “Most of the reactions for the three highest concentrations of AAP were complete by 6 hours”.

B2: Cu2+-substituted Aeromonas aminopeptidase (protein)
chain: B1 chain
B2: the “rate of Ala-hGH cleavage, batch and recirculating column modes, compared with Zn-AAP (RP-HPLC)” value is listed as “Cu^2+-substituted AAP was the most active against Ala-hGH”.
